The source of these data is US20070042463A1 (BURNHAM INSTITUTE, published 2007).

The labels stand for the following.
T1: Siah-1 (22-298) (human, UniProt Q8IUQ4 6-282)
T1 construct: also called Siah-1α amino acids 22-298; LexA/Siah-1 bait
T1 sequence: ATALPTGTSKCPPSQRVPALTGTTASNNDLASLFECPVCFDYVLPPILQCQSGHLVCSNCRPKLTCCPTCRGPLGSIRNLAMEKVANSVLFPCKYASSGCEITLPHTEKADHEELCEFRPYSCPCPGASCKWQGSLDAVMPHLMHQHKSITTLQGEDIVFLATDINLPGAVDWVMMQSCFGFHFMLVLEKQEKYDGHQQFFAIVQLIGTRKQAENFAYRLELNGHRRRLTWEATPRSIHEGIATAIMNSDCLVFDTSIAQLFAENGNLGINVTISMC

T2: SAF-1 (human, UniProt Q9Y3I1 92-522)
T2 construct: also called SAF-1α; Skp1-Associated F-box protein-1
T2 sequence: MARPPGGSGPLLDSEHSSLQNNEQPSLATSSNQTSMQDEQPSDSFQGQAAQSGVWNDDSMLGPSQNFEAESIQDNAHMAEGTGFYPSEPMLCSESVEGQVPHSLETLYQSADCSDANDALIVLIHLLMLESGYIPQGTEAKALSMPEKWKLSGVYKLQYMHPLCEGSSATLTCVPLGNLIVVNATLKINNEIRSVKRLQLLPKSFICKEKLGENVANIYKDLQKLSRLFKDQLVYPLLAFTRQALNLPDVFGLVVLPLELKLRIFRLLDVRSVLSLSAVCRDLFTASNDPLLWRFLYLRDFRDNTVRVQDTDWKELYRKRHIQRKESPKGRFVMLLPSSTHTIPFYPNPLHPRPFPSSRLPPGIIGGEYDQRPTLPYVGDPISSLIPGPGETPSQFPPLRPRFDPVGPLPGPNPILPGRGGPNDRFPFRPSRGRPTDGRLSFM

B1: empty (LexA DNA-binding domain without insert) (other, UniProt P0A7C2 1-202, looked up)
chain: MKALTARQQEVFDLIRDHISQTGMPPTRAEIAQRLGFRSPNAAEEHLKALARKGVIEIVSGASRGIRLLQEEEEGLPLVGRVAAGEPLLAQQHIEGHYQVDPSLFKPNADFLLRVSGMSMKDIGIMDGDLLAVHKTQDVRNGQVVVARIDDEVTVKRLKKQGNKVELLPENSEFKPIVVDLRQQSFTIEGLAVGVIRNGDWL
B2: APC (2681-2843) (other, human, UniProt P25054 2681-2843, looked up)
chain: PVIDSVSEKANPNIKDSKDNQAKQNVGNGSVPMRTVGLENRLNSFIQVDAPDQKGTEIKPGQNNPVPVSETNESSIVERTPFSSSSSSKHSSPSGTVAARVTPFNYNPSPRKSSADSTSARPSQIPTPVNNNTKKRDSKTDSTESSGTQSPKRHSGSYLVTSV
notes: LexA or B42 fusion in yeast two-hybrid
B3: SIP-L (other)
chain: MASEELQKDLEEVKVLLEKATRKRVRDALTAEKSKIETEIKNKMQQKSQKKAELLDNEKPAAVVAPITTGYTVKISNYGWDQSDKFVKIYITLTGVHQVPTENVQVHFTERSFDLLVKNLNGKSYSMIVNNLLKPISVEGSSKKVKTDTVLILCRKKVENTRWDYLTQVEKECKEKEKPSYDTETDPSEGLMNVLKKIYEDGDDDMKRTINKAWVESREKQAKGDTEF
B4: Siah-1 (other)
chain: MVIIIFLLPPYVFISEMSRQTATALPTGTSKCPPSQRVPALTGTTASNNDLASLFECPVCFDYVLPPILQCQSGHLVCSNCRPKLTCCPTCRGPLGSIRNLAMEKVANSVLFPCKYASSGCEITLPHTEKADHEELCEFRPYSCPCPGASCKWQGSLDAVMPHLMHQHKSITTLQGEDIVFLATDINLPGAVDWVMMQSCFGFHFMLVLEKQEKYDGHQQFFAIVQLIGTRKQAENFAYRLELNGHRRRLTWEATPRSIHEGIATAIMNSDCLVFDTSIAQLFAENGNLGINVTISMC
notes: also called Siah-1α; Siah 1α
B5: ODC-RANK peptide (protein, part only; not given: Order of parts uncertain, part only)
chain, part: MEQKLISEEDLMNNFGNEEFDCHFLDEGFTAKDILDQKINEVSSSDDKDAFYVADLGDILKKHLRWLKALPRVTPFYAVKCNDSKAIVKTLAATGTGFDCASKTEIQLVQSLGVPPERIIYANPCKQVSQIKYAANNGVQMMTFDSEVELMKVARAHPKAKLVLRIATDDSKAVCRLSVKFGATLRTSRLLLERAKELNIDVVGVSFHVGSGCTDPETFVQAISDARCVFDMGAEVGFSMYLLDIGGGFPGSEDVKLKFEEITGVINPALDKYFPSDSGVRIIAEPGRYYVASAFTLAVNIIAKKIVLKEQTGSDDEDESSEQTFMYYVNDGVYGSFNCILYDHAHVKPLLQKRPKPDEKYYSSSIWGPTCDGLDRIVERCDLPEMHVGDWMLFENMGAYTVAAASTFNGFQRPTIYYVMSGPAWQLMQQFQNPDFPPEVEEQDASTLPVSCAWESGMKRHRAACASASINVAGGGSGGGGSGGGGSGGGGS
B6: SIP-S (other)
chain: MASEELQKDLEEVKVLLEKATRKRVRDALTAEKSKIETEIKNKMQQKSQKKAELLDNEKPAAVVAPITTGYTDGISQISL
notes: B42 fusion in yeast two-hybrid

Data set [1] addresses B3. Description: yeast two-hybrid; empty LexA with B42-SIP-L; Leu+ growth - and β-Gal -.
Data set [2] has as its target B1. Put plainly: yeast two-hybrid; empty LexA with B42-APC(2681-2843); Leu+ growth - and β-Gal -.
For another data set, the target named is T1, Siah-1 (22-298). Put plainly: yeast two-hybrid library screen; LexA-Siah-1 (22-298) bait, human embryonic brain cDNA clones.
Data set [3] deals with the molecule itself. Put plainly: yeast two-hybrid; LexA-SIP-L with B42-SIP-L; growth on leucine-deficient media (Leu+).
In a further data set the target is T2, SAF-1. Put plainly: yeast two-hybrid (FIG. 6A).
A further data set concerns the target HA-TRAF6. Put plainly: cell-based or functional assay.
The target of data set [4] is B3. Put plainly: yeast two-hybrid; LexA-SIP-L with B42-SIP-S; Leu+ growth - and β-Gal -.

Description for SAF-1: Transformed cells were grown on semi-solid media lacking leucine or containing leucine as a control.
Description for Siah-1 (22-298): Transformations were performed by a LiCi method using 0.25 mg of pJG4-5-cDNA library DNA, and 5 mg of denatured salmon sperm carrier DNA. Clones that formed on Leu deficient BMM plates containing 2% galactose/1% raffinose were transferred to BMM plates containing leucine and 2% glucose, and filter assays were performed for β-galactosidase measurements as previously described.

For the molecule B1, the binding result with SIP-L [1] was “no binding”.
Turning to B2, the binding result in data set [2] was “no binding”; with Siah-1 (22-298), “binds”.
In the case of B3, the binding result (in data set [3]; with Siah-1 (22-298)) was “binds” each time.
Take B4: the binding result with SAF-1 is given as “no binding”.
Take B5: in the data set with HA-TRAF6, the half-life of HA-TRAF6 (35S pulse-chase), ODC-RANKp with AZ was less than 1 h and the half-life of HA-TRAF6 (35S pulse-chase), ODC-RANKp without AZ was 2 h.
B6: the values for the binding result in the data set with SIP-L [4] and in the data set with Siah-1 (22-298) were “no binding” and “binds”, respectively.
